Numbered stars: 1 amine (or outer) side, 2 acyl side, 3 side chain; on linkers, the order of the positions; unused ones are H or OH. Square brackets hold non-standard residues; d marks the D form. Primed or numbered codes have the meaning given here. Ends that are not written are not given here. * marks the point of attachment. ξ: configuration not given here. Apc(Ae) = 4-amino-1-(2-amino-ethyl)-piperidine-4-carboxylic acid, O=C(C1(N[*:1])CCN(CCN[*:3])CC1)[*:2]; Apc(Et) = 4-amino-1-ethyl-piperidine-4-carboxylic acid, CCN1CCC(N[*:1])(C(=O)[*:2])CC1; Apc(Me) = 4-amino-1-methyl-piperidine-4-carboxylic acid, CN1CCC(N[*:1])(C(=O)[*:2])CC1; Pro(trans-4-NH2) = O=C([C@@H]1C[C@@H](N[*:3])CN1[*:1])[*:2]; Sni = (S)-nipecotic acid, O=C([C@H]1CCCN([*:1])C1)[*:2]; Tyr(3-I) = N[C@@H](Cc1ccc(O)c(I)c1)C(=O)O; NMeR = CN[C@@H](CCCNC(=N)N)C(=O)O; dDap(Me2) = CN(C)C[C@@H](N)C(=O)O; Hyp = O=C(O)[C@@H]1C[C@@H](O)CN1; Gly(cPr) = N[C@H](C(=O)O)C1CC1; Aoc(2) = CCCCCC[C@H](N)C(=O)O; NMeL = CN[C@@H](CC(C)C)C(=O)O; Chg = N[C@H](C(=O)O)C1CCCCC1; Tle = CC(C)(C)[C@H](N)C(=O)O; ξαMeL = CC(C)CC(C)(N)C(=O)O; Octanoyl = CCCCCCCC(=O)*; Thz = O=C(O)[C@@H]1CSCN1; Api = NC1(C(=O)O)CCNCC1; Pip′ = not defined here; dAze = O=C(O)[C@H]1CCN1; Deg = CCC(N)(CC)C(=O)O; Oct = not defined here; Aib = CC(C)(N)C(=O)O; GABA = NCCCC(=O)O
T1: natriuretic peptide receptor-B (human)
T1 chain: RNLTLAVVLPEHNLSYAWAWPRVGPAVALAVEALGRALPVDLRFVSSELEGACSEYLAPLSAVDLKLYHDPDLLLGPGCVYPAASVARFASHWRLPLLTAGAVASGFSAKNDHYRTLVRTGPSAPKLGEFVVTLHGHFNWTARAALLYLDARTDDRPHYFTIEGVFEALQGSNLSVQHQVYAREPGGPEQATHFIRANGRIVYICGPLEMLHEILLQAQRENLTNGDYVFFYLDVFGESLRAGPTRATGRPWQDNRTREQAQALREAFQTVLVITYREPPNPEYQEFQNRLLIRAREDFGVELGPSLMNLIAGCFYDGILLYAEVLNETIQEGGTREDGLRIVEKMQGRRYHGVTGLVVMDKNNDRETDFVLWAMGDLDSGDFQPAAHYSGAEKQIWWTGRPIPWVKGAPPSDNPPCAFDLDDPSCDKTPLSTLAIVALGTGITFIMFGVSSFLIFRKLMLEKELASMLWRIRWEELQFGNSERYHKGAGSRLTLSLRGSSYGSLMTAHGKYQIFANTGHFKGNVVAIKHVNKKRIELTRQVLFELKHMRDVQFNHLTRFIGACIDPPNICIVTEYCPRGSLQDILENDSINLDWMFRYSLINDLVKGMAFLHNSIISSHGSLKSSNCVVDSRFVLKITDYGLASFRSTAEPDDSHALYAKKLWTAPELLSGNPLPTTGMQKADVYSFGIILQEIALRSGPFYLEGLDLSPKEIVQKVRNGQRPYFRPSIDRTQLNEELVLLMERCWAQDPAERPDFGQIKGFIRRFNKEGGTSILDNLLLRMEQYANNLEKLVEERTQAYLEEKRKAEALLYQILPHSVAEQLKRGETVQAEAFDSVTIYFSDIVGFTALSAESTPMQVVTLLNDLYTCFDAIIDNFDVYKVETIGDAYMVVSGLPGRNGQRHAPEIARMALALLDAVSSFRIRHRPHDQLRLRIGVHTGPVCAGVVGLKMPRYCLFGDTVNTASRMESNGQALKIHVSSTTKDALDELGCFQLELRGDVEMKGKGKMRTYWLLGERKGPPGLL


Molecular target: T1, natriuretic peptide receptor-B
Experiment: cell-based or functional assay

| Binder | EC50 group, cGMP in GTM-3 cells |
| --- | --- |
| Octanoyl-AFLL[Hyp][NMeL]DPI-NH2 (also: lower-case ala, leu: meaning not given here) [JAL-1418] | ≤ 5 µM |
| Octanoyl-[Sni]F[dDap(Me2)]L[Hyp][NMeL]VRI-NH2 [JAL-1402] | ≤ 5 µM |
| Octanoyl-[Sni]F[dDap(Me2)]L[Pro(trans-4-NH2)][NMeL]VRI-NH2 [JAL-1405] | ≤ 1 µM |
| Octanoyl-AFLL[Hyp][NMeL]DR[ξαMeL]-NH2 (also: lower-case ala, leu: meaning not given here) [JAL-1414] | ≤ 1 µM |
| [Tyr(3-I)][GABA][Aoc(2)]AFRL[Hyp][NMeL]DRI-NH2 (also: lower-case ala, arg: meaning not given here) [JAL-1431] | ≤ 15 µM |
| Octanoyl-AFRL[Hyp][NMeL]DPI-NH2 (also: lower-case ala, arg: meaning not given here) [JAL-1434] | ≤ 5 µM |
| Octanoyl-[Sni]F[dL]L[Pro(trans-4-NH2)][NMeL]VRI-NH2 [JAL-1401] | ≤ 1 µM |
| [Tyr(3-I)][Aoc(2)]AFRL[Hyp][NMeL]DRI-NH2 (also: lower-case ala, arg: meaning not given here) [JAL-1430] | ≤ 1 µM |
| Octanoyl-AFLL[Hyp][NMeL]D[Hyp]I-NH2 (also: lower-case ala, leu: meaning not given here) [JAL-1441] | ≤ 15 µM |
| Octanoyl-[dA]F[Apc(Et)]E[dT]L[Hyp][NMeL]DRI-NH2 [JAL-1407] | ≤ 1 µM |
| XXFGLKLDRI (HELM PEPTIDE1{[CCCCCC(=O)[*:2]].[O=C(C1CCN([*:1])CC1)[*:2]].F.G.L.K.L.D.R.I.[am]}$$$$V2.0; SMILES CCCCCC(=O)N1CCC(C(=O)N[C@@H](Cc2ccccc2)C(=O)NCC(=O)N[C@@H](CC(C)C)C(=O)N[C@@H](CCCCN)C(=O)N[C@@H](CC(C)C)C(=O)N[C@@H](CC(=O)O)C(=O)N[C@@H](CCCNC(=N)N)C(=O)N[C@H](C(N)=O)[C@@H](C)CC)CC1) [JAL-0651] | ≤ 15 µM |
| XXFGLKLDRI (HELM PEPTIDE1{[CCCCCC(=O)[*:2]].[O=C([C@H]1CC[C@H](CN[*:1])CC1)[*:2]].F.G.L.K.L.D.R.I.[am]}$$$$V2.0; SMILES CCCCCC(=O)NC[C@H]1CC[C@H](C(=O)N[C@@H](Cc2ccccc2)C(=O)NCC(=O)N[C@@H](CC(C)C)C(=O)N[C@@H](CCCCN)C(=O)N[C@@H](CC(C)C)C(=O)N[C@@H](CC(=O)O)C(=O)N[C@@H](CCCNC(=N)N)C(=O)N[C@H](C(N)=O)[C@@H](C)CC)CC1) [JAL-0653] | ≤ 15 µM |
| Ac-[Tyr(3-I)][GABA][Aoc(2)]AFRL[Hyp][NMeL]DRI-NH2 (also: lower-case ala, arg: meaning not given here) [JAL-1432] | ≤ 15 µM |
| Octanoyl-AFLL[Hyp][NMeL][Gly(cPr)]RI-NH2 (also: lower-case ala, leu: meaning not given here) [JAL-1424] | ≤ 15 µM |
| XXFGLKLDRI (HELM PEPTIDE1{[CCCCCC(=O)[*:2]].[O=C(Cn1cccc(N[*:1])c1=O)[*:2]].F.G.L.K.L.D.R.I.[am]}$$$$V2.0; SMILES CCCCCC(=O)Nc1cccn(CC(=O)N[C@@H](Cc2ccccc2)C(=O)NCC(=O)N[C@@H](CC(C)C)C(=O)N[C@@H](CCCCN)C(=O)N[C@@H](CC(C)C)C(=O)N[C@@H](CC(=O)O)C(=O)N[C@@H](CCCNC(=N)N)C(=O)N[C@H](C(N)=O)[C@@H](C)CC)c1=O) [JAL-0652] | ≤ 15 µM |
| Octanoyl-AFLL[Hyp][NMeL][Tle]RI-NH2 (also: lower-case ala, leu: meaning not given here) [JAL-1420] | ≤ 15 µM |
| Octanoyl-[Sni]FLL[Hyp][NMeL]DPI-NH2 (also: lower-case leu: meaning not given here) [JAL-1436] | ≤ 5 µM |
| Octanoyl-[dA]F[dL]L[Hyp][NMeL]DR[Aib]-NH2 [JAL-1413] | ≤ 5 µM |
| Octanoyl-AFLL[Hyp][NMeL][Chg]RI-NH2 (also: lower-case ala, leu: meaning not given here) [JAL-1421] | ≤ 15 µM |
| Octanoyl-[Sni]F[dL]L[Pro(trans-4-NH2)][NMeL]VRI-NH2 [JAL-1404] | ≤ 5 µM |
| Octanoyl-AF[Api]L[Hyp][NMeL]DPI-NH2 (also: lower-case ala: meaning not given here) [JAL-1435] | ≤ 5 µM |
| Octanoyl-AFLL[Hyp][NMeL]D[Pip′]I-NH2 (also: lower-case ala, leu: meaning not given here) [JAL-1438] | ≤ 5 µM |
| Octanoyl-AFLL[Hyp][NMeL]D[dAze]I-NH2 (also: lower-case ala, leu: meaning not given here) [JAL-1437] | ≤ 5 µM |
| Octanoyl-AFLL[Hyp][NMeL]D[Thz]I-NH2 (also: lower-case ala, leu: meaning not given here) [JAL-1442] | ≤ 5 µM |
| Octanoyl-AFLL[Hyp][NMeL]DR[Deg]-NH2 (also: lower-case ala, leu: meaning not given here) [JAL-1416] | ≤ 1 µM |
| Octanoyl-[Sni]F[dDap(Me2)]L[Pro(trans-4-NH2)][NMeL]VRI-NH2 [JAL-1403] | ≤ 1 µM |
| Octanoyl-AFLL[Hyp][NMeL]D[NMeR]I-NH2 (also: lower-case ala, leu: meaning not given here) [JAL-1417] | ≤ 1 µM |
| Octanoyl-[dA]F[Apc(Me)]M[dE]L[Hyp][NMeL]DRI-NH2 [JAL-1406] | ≤ 1 µM |
| [Oct][Sni]F[dDap(Me2)]L[Hyp][NMeL]DRI-NH2 (reading uncertain; also: printed as Oct-Sni-Phe-dap(Me2)-Leu-Hyp-Nml-Asp-Arg-Ile-NH2) [JAL-1429] | ≤ 1 µM |
| Octanoyl-[dA]F[Apc(Ae)]A[dE]L[Hyp][NMeL]DRI-NH2 [JAL-1408] | ≤ 5 µM |

From US9187525B2, “Methods of treating ophthalmic diseases using NPR-B agonists” (Shire Orphan Therapies GmbH, dated 2015)
